# Laboratory results as given in article PMC4644428.
# B1: 26-mer CRP consensus (dsDNA)
# DNA 1: GTAAATGTGATGTACATCACATGGAT
# DNA 2: ATCCATGTGATGTACATCACATTTAC
# Experiments:
# CRPG = CRPG (UniProt P0ACJ8 1-210, R124N;T128C;S129T); assay: fluorescence polarization
# CRP (wild type) = CRP (wild type) (UniProt P0ACJ8 1-210); assay: fluorescence polarization
binder,measurement,setting,value
B1,binding result,CRPG,binds
same,binding result,CRP (wild type),binds
